Laboratory results published in PMC4174003 (2014).

Tests used:
PCSK9 [1] = biological target: T1, PCSK9 (Mus musculus, UniProt Q80W65); assay: SPR
T1 chain: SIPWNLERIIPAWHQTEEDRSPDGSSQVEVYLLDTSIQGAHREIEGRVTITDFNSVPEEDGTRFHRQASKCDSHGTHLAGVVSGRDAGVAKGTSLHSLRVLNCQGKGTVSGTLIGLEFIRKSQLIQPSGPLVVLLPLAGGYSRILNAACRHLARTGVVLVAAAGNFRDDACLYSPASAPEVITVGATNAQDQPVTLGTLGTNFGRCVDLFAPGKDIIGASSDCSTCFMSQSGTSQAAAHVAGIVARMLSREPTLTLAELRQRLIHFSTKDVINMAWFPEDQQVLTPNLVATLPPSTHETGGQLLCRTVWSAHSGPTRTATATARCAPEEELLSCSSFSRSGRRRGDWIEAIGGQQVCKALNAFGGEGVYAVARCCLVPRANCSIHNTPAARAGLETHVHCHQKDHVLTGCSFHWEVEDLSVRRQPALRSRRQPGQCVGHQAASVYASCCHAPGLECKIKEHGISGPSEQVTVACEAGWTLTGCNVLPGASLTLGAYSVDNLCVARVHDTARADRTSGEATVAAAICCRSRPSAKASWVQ

PCSK9 [2] = biological target: PCSK9 (Homo sapiens, UniProt Q8NBP7); assay: SPR
Chain of PCSK9 (Homo sapiens, UniProt Q8NBP7) (Q8NBP7 153-692): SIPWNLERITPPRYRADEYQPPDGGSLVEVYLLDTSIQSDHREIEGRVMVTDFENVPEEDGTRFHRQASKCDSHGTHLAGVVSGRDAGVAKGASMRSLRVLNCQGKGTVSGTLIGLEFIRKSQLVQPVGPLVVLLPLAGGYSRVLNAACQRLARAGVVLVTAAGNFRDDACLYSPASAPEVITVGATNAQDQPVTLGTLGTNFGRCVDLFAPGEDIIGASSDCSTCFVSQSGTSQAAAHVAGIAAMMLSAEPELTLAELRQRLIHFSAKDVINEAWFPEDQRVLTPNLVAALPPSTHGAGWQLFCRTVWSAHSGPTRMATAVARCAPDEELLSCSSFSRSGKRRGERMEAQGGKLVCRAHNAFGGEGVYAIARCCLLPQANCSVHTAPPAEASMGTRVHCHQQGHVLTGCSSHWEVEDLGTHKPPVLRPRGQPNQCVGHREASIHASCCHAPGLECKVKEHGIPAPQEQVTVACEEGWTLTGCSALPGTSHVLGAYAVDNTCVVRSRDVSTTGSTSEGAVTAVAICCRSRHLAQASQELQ

- Kd (PCSK9 [1]): 2.6 nM
- Kd (PCSK9 [2]): 0.58 nM
B1: alirocumab (antibody, V domains shown)
VH: EVQLVESGGGLVQPGGSLRLSCAASGFTFNNYAMNWVRQAPGKGLDWVSTISGSGGTTNYADSVKGRFIISRDSSKHTLYLQMNSLRAEDTAVYYCAKDSNWGNFDLWGRGTLVTVSS
VL: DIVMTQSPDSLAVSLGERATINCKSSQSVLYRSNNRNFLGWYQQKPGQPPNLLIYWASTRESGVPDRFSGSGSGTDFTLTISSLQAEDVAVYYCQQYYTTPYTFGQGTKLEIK
